Measured values: US7291492B2, “Histone deacetylase 9” (The Institute of Cancer Research, priority 2001, dated 2007)

Tested on: histone H4 peptide
Experiment: in-vitro histone deacetylase assay with anti-FLAG immunoprecipitated HDAC, [3H]acetyl-labelled histone H4 peptide
Assay type: biochemical
Conditions: FLAG-tagged HDAC from 293T cells, FIG. 5A
Method: A. HDAC9 deacetylates histone H4 peptide. 293T cells were transfected with FLAG-tagged HDAC. Whole cell lysates were produced and the HDACs precipitated with anti-FLAG agarose. The beads were assayed for their ability to deacetylate a [^3H]acetyl-labelled peptide corresponding to the N-Terminus of histone H4. Free acetate was extracted and measured by scintillation counting.
Higher activities of HDAC9 have been detected towards peptide substrates derived from histone H3 than from histone H4 (FIGS. 7A and B).

B1: HDAC9: wild-type histone deacetylase 9, a 1069 amino acid polypeptide, class II histone deacetylase (protein)
chain: MHSMISSVDVKSEVPVGLEPISPLDLRTDLRMMMPVVDPVVREKQLQQELLLIQQQQQIQKQLLIAEFQKQHENLTRQHQAQLQEHIKLQQELLAIKQQQELLEKEQKLEQQRQEQEVERHRREQQLPPLRGKDRGRERAVASTEVKQKLQEFLLSKSATKDTPTNGKNHSVSRHPKLWYTAAHHTSLDQSSPPLSGTSPSYKYTLPGAQDAKDDFPLRKTASEPNLKVRSRLKQKVAERRSSPLLRRKDGNVVTSFKKRMFEVTESSVSSSSPGSGPSSPNNGPTGSVTENETSVLPPTPHAEQMVSQQRILIHEDSMNLLSLYTSPSLPNITLGLPAVPSQLNASNSLKEKQKCETQTLRQGVPLPGQYGGSIPASSSHPHVTLEGKPPNSSHQALLQHLLLKEQMRQQKLLVAGGVPLHPQSPLATKERISPGIRGTHKLPRHRPLNRTQSAPLPQSTLAQLVIQQQHQQFLEKQKQYQQQIHMNKLLSKSIEQLKQPGSHLEEAEEELQGDQAMQEDRAPSSGNSTRSDSSACVDDTLGQVGAVKVKEEPVDSDEDAQIQEMESGEQAAFMQQPFLEPTHTRALSVRQAPLAAVGMDGLEKHRLVSRTHSSPAASVLPHPAMDRPLQPGSATGIAYDPLMLKHQCVCGNSTTHPEHAGRIQSIWSRLQETGLLNKCERIQGRKASLEEIQLVHSEHHSLLYGTNPLDGQKLDPRILLGDDSQKFFSSLPCGGLGVDSDTIWNELRSSGAARMAVGCVIELASKVASGELKNGFAVVRPPGHHAEESTAMGFCFFNSVAITAKYLRDQLNISKILIVDLDVHHGNGTQQAFYADPSILYISLHRYDEGNFFPGSGAPNEVGTGLGEGYNINIAWTGGLDPPMGDVEYLEAFRTIVKPVAKEFDPDMVLVSAGFDALEGHTPPLGGYKVTAKCFGHLTKQLMTLADGRVVLALEGGHDLTAICDASEACVNALLGNELEPLAEDILHQSPNMNAVISLQKIIEIQSKYWKSVRMVAVPRGCALAGAQLQEETETVSALASLTVDVEQPFAQEDSRTAGEPMEEEPAL
modifications: left off: a dimerising Fc or GST
notes: wild-type histone deacetylase 9, a 1069 amino acid polypeptide, class II histone deacetylase
  histone deacetylase activity relative to HDAC1: about 25%
  histone deacetylase activity relative to HDACs 4 and 5: ~50%
